Data taken from US20200384079A1, “Compositions of Fibroblast Growth Factor LIgands and Methods of Treating Patients Undergoing Ischemia-Reperfusion Therapy” (University of Cincinnati, priority 2017, published 2020).
“Also recorded” adds a separate entry of the source. Read-outs that look alike come from different tables or passages of the source.

T1: FGFR3c ectodomain (Homo sapiens, UniProt P22607)
T1 sequence (P22607 23-375 limits assumed): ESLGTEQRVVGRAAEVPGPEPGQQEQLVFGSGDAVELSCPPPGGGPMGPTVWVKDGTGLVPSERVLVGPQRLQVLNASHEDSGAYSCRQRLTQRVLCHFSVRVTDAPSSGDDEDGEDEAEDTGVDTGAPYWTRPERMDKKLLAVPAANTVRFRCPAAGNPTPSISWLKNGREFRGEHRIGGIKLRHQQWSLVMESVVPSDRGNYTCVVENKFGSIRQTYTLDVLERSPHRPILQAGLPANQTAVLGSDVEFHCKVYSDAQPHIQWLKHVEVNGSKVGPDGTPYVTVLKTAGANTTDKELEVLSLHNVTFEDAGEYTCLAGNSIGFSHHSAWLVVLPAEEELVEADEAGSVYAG

B1: FGF1^ΔHBS: FGF1 mutant carrying the K127D/K128Q/K133V triple mutation in its HS-binding region; reduced heparin-binding affinity (protein)
chain: MAEGEITTFTALTEKFNLPPGNYKKPKLLYCSNGGHFLRILPDGTVDGTRDRSDQHIQLQLSAESVGEVYIKSTETGQYLAMDTDGLLYGSQTPNEECLFLERLEENHYNTYISKKHAEKNWFVGLDQNGSCVRGPRTHYGQKAILFLPLPVSSD

Columns and labels:
[1] = ITC of FGF interaction with Sucrose Octasulfate (SOS); type: binding
Excerpt: FIGS. 1A-1D: Structure-guided design of the FGF1^ΔHBS construct. (FIG. 1A) Expanded view of the hydrogen bonding interactions (dashed lines) between the HS-binding site of FGF2 and heparin hexasaccharide as observed in the crystal structure. FGF2 is shown as a ribbon diagram with HS-interacting residues rendered in sticks. The three FGF2 residues namely, K128, R129 and K134 that make important hydrogen bonding with HS are boxed. The corresponding three residues in FGF1 are K127, K128 and K133 which were mutated to aspartic acid, glutamine and valine, respectively, to engineer the FGF1ΔHBS construct; (FIG. 1B) FGF1^ΔHBS elutes as a single symmetric peak at its predicted molecular weight from a Superdex 200 sizing column. Retention times of protein standards are given above the chromatogram. (FIG. 1C and FIG. 1D) Analysis of the interactions of wildtype FGF1 and FGF1^ΔHBS with SOS. Indicated solutions of SOS were injected into solutions of wildtype FGF1 or FGF1ΔHBS in the cell. […]
To test the impact of the mutations on HS-binding ability of FGF1, isothermal titration calorimetry (ITC) was used to compare the interactions of native FGF1 and FGF1^ΔHBS with Sucrose Octasulfate (SOS), a known surrogate for HS. […] Next, the cardioprotective potential of FGF1^ΔHBS mutant when administered immediately upon reperfusion was evaluated in an in vivo rat model of myocardial infarction. […]

FGFR3c ectodomain = target: T1, FGFR3c ectodomain; assay: ITC of FGF binding to FGFR3c ectodomain; settings: for Kd: read-out: affinity for FGFR3c ectodomain
wildtype mouse hearts = assay: Ex vivo model, low-flow ischemia and reperfusion; settings: 10 μg immediately at reperfusion; 60 minutes low-flow ischemia, 60 minutes reperfusion
Excerpt: FIGS. 12A-12B. […] Left bar is vehicle-treated and right bar is FGF2-treated wildtype mouse hearts.

[2] = rat; for exogenous FGF1 level targeted to the heart: 10 μg/kg i.v.; for tissue and plasma FGF distribution (in words): i.v.
[3] = Pharmacokinetic evaluation after intraperitoneal dose (serum ELISA); type: in vivo, rat; settings: single intraperitoneal dose 0.5 mg/kg
Description: CVR-2016-799R1 signaling and the other two sets were to evaluate the pharmacokinetic properties of native FGF1 and modified FGF1 (FGF1^ΔHBS). The first set of experiments was for the ischemia/reperfusion study in which animals were divided into six groups as follows: (1) saline group: saline treatment given intravenously for 10 minutes immediately upon reperfusion, (2) heparin group: heparin, 60 U/kg intravenous (i.v.) bolus, given immediately at reperfusion+12 U/kg/hr i.v. infusion for 120 minutes of reperfusion, (3) FGF1 group: FGF1, 10 μg/kg i.v. infusion, given for 10 minutes immediately at reperfusion, (4) FGF1+heparin: heparin, 60 U/kg bolus, given immediately upon reperfusion followed by FGF1, 10 μg/kg i.v. infusion, given for 10 minutes and 12 U/kg/hr i.v. infusion given for 110 minutes of reperfusion, (5) modified FGF1 (FGF1^ΔHBS) group: FGF1^ΔHBS, 10 μg/kg i.v. infusion, given for 10 minutes, or (6) FGF1^ΔHBS+heparin: heparin, 60 U/kg bolus, given immediately at reperfusion followed by FGF1^ΔHBS, 10 μg/kg i.v. infusion, given for 10 minutes and 12 U/kg/hr i.v. infusion for 110 minutes of reperfusion. All rats were subjected to 30 minutes of regional ischemia and 120 minutes of reperfusion. Drugs were administered at the onset of reperfusion via the jugular vein (FIG. 2A). […] A total of ninety-six rats was completed for the I/R study. Sample size for each group ranged from 9-16 depending on the power analysis. A total of thirty-five rats were excluded from the study based on the lack of cyanosis of the heart or typical elevation of the ST segment in the electrocardiogram during ischemia, and death from malignant arrhythmia. For the biodistribution or FGF1 signaling study, rats were randomly divided into six groups as described above (FIG. 2B). Following drug treatment (immediately following 15 minutes of treatment or 105 minutes post-treatment at the point which mimics the length of time of reperfusion), solid organs and blood (see sections “Tissue collection for exogenous FGF1 biodistribution” and “Cardiac preparation to detect the activation of FGF1 downstream molecules”) were collected. A total of 33 rats were used for biodistribution and FGF1 signaling studies, and 3 rats were excluded due to anesthetic overdose. Also, a total of 8 plasma samples were excluded because of hemolysis. For elimination half-life of native FGF1 and FGF1^ΔHBS, 12 rats were randomly divided into two groups and treated intraperitoneally with either FGF1 form as described in the section “Pharmacokinetic evaluation of exogenous FGF1 or FGF1^ΔHBS ”.
The in vivo half-life of FGF1 or FGF^ΔHBS (given as a single, intraperitoneal dose of
0.5 mg/kg body weight) was assessed, using the human FGF1 immunoassay ELISA kit (R&D System, MN), from blood (i.e., serum) collected at varying times as described previously. The pharmacokinetic parameters of FGF1 or FGF1^ΔHBS were analyzed using the Drug and […]

Molecule	Kd [1] [nM]	Kd (FGFR3c ectodomain) [nM]	contractile function (+dP/dt) compared to vehicle (in words) (wildtype mouse hearts)	infarct size compared to vehicle (in words) (wildtype mouse hearts)	exogenous FGF1 level targeted to the heart ([2]; no heparin) [µg/mL]	tissue and plasma FGF distribution (in words) ([2]; FGF with heparin co-administration)	tissue and plasma FGF distribution (in words) ([2]; no FGF+heparin co-treatment)	binding to SOS (in words) [1]	FGFR (receptor) binding affinity (in words) (FGFR3c ectodomain; FGFR3c ectodomain)	absorption phase half-life (in words) ([3]; non-compartmental)	elimination phase half-life (in words) ([3]; non-compartmental, 0.5 mg/kg)	area-under-curve (AUC), fold greater than FGF1 ([3]; serum) [fold]	maximum serum concentration (Cmax), fold greater than FGF1 ([3]; serum) [fold]	time to reach maximum serum concentration (Tmax) (in words) ([3]; 0.5 mg/kg)	exogenous FGF1 level targeted to the heart ([2]; with heparin administration) [µg/mL]
FGF1: native recombinant human fibroblast growth factor 1	4000	704	significant enhancement of contractile function	significant reduction in infarct size	2282 ± 97	significantly decreased in kidney, spleen, heart, liver and plasma	distributed to kidney, spleen, heart, liver, and plasma, while less went to lung and skeletal muscle								
B1		432			3073 ± 101		mainly went to the heart including atria, left ventricle, and right ventricle; also recorded: greater biodistribution of FGF1^ΔHBS to the left ventricle compared to native FGF1	negligible; also recorded: fails to bind SOS	retains normal receptor binding affinity	not significantly different from FGF1	not significantly different from FGF1	2	4	reached earlier than with FGF1; also recorded: relatively fast	4336 ± 775
